Data on six sequences can be found in the Immune Epitope Database (IEDB).

The target of experiment [1] is HLA-A*26:03. Description: IEDB peptide-MHC binding, purified MHC/direct/fluorescence; filed as Kd, often an IC50 or EC50 that approximates it; ≥ and ≤ were set here for values at or beyond the usual limits of such assays. The settings on record: source organism: Burkholderia mallei ATCC 23344.
Experiment [2] addresses HLA-A*02:01. Kind of experiment: IEDB peptide-MHC binding, purified MHC/competitive/radioactivity; ≥ and ≤ were set here for values at or beyond the usual limits of such assays. The note with it: source organism: Homo sapiens.
For experiment [3], the target named is HLA-B*15:17. Description: IEDB peptide-MHC binding, purified MHC/direct/fluorescence; filed as Kd, often an IC50 or EC50 that approximates it; ≥ and ≤ were set here for values at or beyond the usual limits of such assays.
Experiment [4] concerns the target HLA-A*69:01. The experiment is described as above.
The target of experiment [5] is HLA-B*39:01. Described as above. The note with it: source organism: Vibrio parahaemolyticus RIMD 2210633.
In experiment [6] the target is HLA-A*26:01. The description is as above. The settings on record: source organism: Vibrio parahaemolyticus RIMD 2210633.
Experiment [7] has as its target HLA-B*18:01. The experiment is described as above.
The target of experiment [8] is HLA-B*48:01. Described as above.
Experiment [9] deals with HLA-B*46:01. The experiment is described as above.
In experiment [10] the target is HLA-B*57:01. The description is as above.
Experiment [11] concerns the target HLA-A*03:01. Described as above. The settings on record: source organism: Vibrio parahaemolyticus.
The target in experiment [12] is HLA-B*40:01. The experiment is described as above.
In experiment [13] the target is HLA-B*58:01. The experiment is described as above.
The target of experiment [14] is HLA-A*02:01. The description is as above. The note with it: source organism: Vibrio parahaemolyticus.
The target of experiment [15] is HLA-B*27:05. The description is as above.
In experiment [16] the target is HLA-B*08:02. The experiment is described as above. The note with it: source organism: Vibrio parahaemolyticus RIMD 2210633.
Experiment [17] concerns the target HLA-A*31:01. The experiment is described as above.
Experiment [18] has as its target HLA-A*01:01. Described as above.
Experiment [19] concerns the target HLA-A*11:01. Description: IEDB peptide-MHC binding, purified MHC/competitive/fluorescence; filed as Kd, often an IC50 or EC50 that approximates it; ≥ and ≤ were set here for values at or beyond the usual limits of such assays. The note with it: source organism: Vibrio parahaemolyticus K5030.
In experiment [20] the target is HLA-B*15:01. The description is as above.
Experiment [21] deals with HLA-A*11:01. Kind of experiment: IEDB peptide-MHC binding, purified MHC/direct/fluorescence; filed as Kd, often an IC50 or EC50 that approximates it; ≥ and ≤ were set here for values at or beyond the usual limits of such assays.
Experiment [22] deals with HLA-B*07:02. The experiment is described as above.
The target of experiment [23] is HLA-B*15:01. The experiment is described as above. The note with it: source organism: Mycobacterium tuberculosis.
The target in experiment [24] is HLA-A*26:02. Description: IEDB peptide-MHC binding, purified MHC/competitive/fluorescence; filed as Kd, often an IC50 or EC50 that approximates it; ≥ and ≤ were set here for values at or beyond the usual limits of such assays.
Experiment [25] addresses HLA-A*68:02. The experiment is described as above. The note with it: source organism: Mycobacterium tuberculosis C.
Experiment [26] has as its target HLA-A*26:01. The experiment is described as above.
Experiment [27] deals with HLA-A*02:06. The description is as above.
The target of experiment [28] is HLA-A*68:02. Kind of experiment: IEDB peptide-MHC binding, purified MHC/direct/fluorescence; filed as Kd, often an IC50 or EC50 that approximates it; ≥ and ≤ were set here for values at or beyond the usual limits of such assays. The settings on record: source organism: Burkholderia mallei.
In experiment [29] the target is HLA-B*15:17. Description: IEDB peptide-MHC binding, purified MHC/competitive/fluorescence; filed as Kd, often an IC50 or EC50 that approximates it; ≥ and ≤ were set here for values at or beyond the usual limits of such assays. The settings on record: source organism: Escherichia coli 536.
In experiment [30] the target is HLA-B*18:01. The description is as above. The settings on record: source organism: Escherichia coli 536.
Experiment [31] deals with HLA-A*02:01. The experiment is described as above. The note with it: source organism: Escherichia coli 536.
In experiment [32] the target is HLA-B*27:05. Described as above. The note with it: source organism: Escherichia coli 536.
Experiment [33] addresses HLA-A*01:01. The description is as above. The note with it: source organism: Escherichia coli 536.
The mark [34] stands for this setting: source organism: Vibrio parahaemolyticus.
Setting [35] is: source organism: Mycobacterium tuberculosis.
Setting [36] is: source organism: Mycobacterium tuberculosis C.
The mark [37] stands for this setting: source organism: Burkholderia mallei.
Where [38] appears, read: source organism: Escherichia coli 536.

A word on the Kd: it is the free concentration of one partner at which half of the binding sites on the other are occupied at equilibrium, for simple one-to-one binding. Low readings indicate tighter binding, high ones weaker binding. In experiment [1], DIIGGPCAH registered a dissociation constant (Kd) of 2 µM.

Broadly, the IC50 is the midpoint of a concentration-inhibition curve. In the case of SCSRAIPQV, the IC50 in experiment [2] came out at 1.47 µM.

Turning to NSSYWRQGY, the equilibrium dissociation constant (Kd) in experiment [3] (setting [34]) is 0.222 µM; in experiment [4] (setting [34]), not below 20 µM; in experiment [5], not below 20 µM; in experiment [6], 0.16 µM; in experiment [7] (setting [34]), not below 20 µM; in [8] (setting [34]) it was not below 20 µM. For the same sequence, the equilibrium dissociation constant (Kd) in experiment [9] (setting [34]), in [10] (setting [34]), in experiment [11], in [12] (setting [34]), in experiment [13] (setting [34]) and in experiment [14] was not below 20 µM each time. The Kd in experiment [15] (setting [34]) was not below 20 µM; in experiment [16], not below 20 µM; in [17] (setting [34]), not below 20 µM; in experiment [18] (setting [34]), 0.093 µM; in [19], not below 20 µM; in experiment [20] (source organism: Vibrio parahaemolyticus K5030), not below 20 µM.

Turning to AVFPRYHPR, the dissociation constant Kd was not below 20 µM in [3] (setting [35]); 0.038 µM in experiment [21] (setting [35]); not below 20 µM in experiment [4] (setting [35]); not below 20 µM in [22] (setting [35]); not below 20 µM in experiment [23]; not below 20 µM in experiment [7] (setting [35]). Further, the dissociation constant (Kd) in experiment [8] (setting [35]), in [9] (setting [35]), in experiment [10] (setting [35]), in experiment [12] (setting [35]), in experiment [13] (setting [35]) and in experiment [15] (setting [35]) was not below 20 µM in each case. Also, the Kd in experiment [17] (setting [35]) was 0.0047 µM; in [18] (setting [35]) it was not below 20 µM; in experiment [24] (setting [36]), not below 20 µM; in experiment [25], 1.91 µM; in experiment [26] (setting [36]) it was 1.67 µM; in [27] (setting [36]), 2.1 µM.

With RQASLSISV, the IC50 in [2] came to 0.285 µM.

Turning to KLYPNVDFY, the dissociation constant (Kd) was 0.225 µM in [21] (setting [37]); not below 20 µM in [4] (setting [37]); not below 20 µM in experiment [28]; not below 20 µM in experiment [22] (setting [37]); not below 20 µM in experiment [8] (setting [37]); not below 20 µM in experiment [9] (setting [37]). For the same sequence, the dissociation constant (Kd) in experiment [12] (setting [37]) is not below 20 µM; in experiment [17] (setting [37]) it was 3.63 µM; in experiment [29] it was 0.207 µM; in experiment [24] (setting [38]), not below 20 µM; in experiment [20] (setting [38]), 0.107 µM; in experiment [26] (setting [38]), not below 20 µM. For the same sequence, the Kd in [30] is not below 20 µM; in [31] it was not below 20 µM; in experiment [32], not below 20 µM; in [27] (setting [38]), 1.6 µM; in experiment [33], 3.47 µM.
